Laboratory results from paper PMC2857095.

Substrate: Nc1ncnc2c1ncn2[C@@H]1O[C@H](COP(=O)(O)OP(=O)(O)OP(=O)(O)O)[C@@H](O)[C@H]1O
Test: purified protein
Settings: no DNA, 100 mM MgCl2

Protein | Km (low affinity site) [µM] | kcat (low affinity site) [s⁻¹] | Km (kcat unit not printed beside value) [µM]
MutS (Escherichia coli K-12) (protein) MSAIENFDAHTPMMQQYLRLKAQHPEILLFYRMGDFYELFYDDAKRASQLLDISLTKRGASAGEPIPMAGIPYHAVENYLAKLVNQGESVAICEQIGDPATSKGPVERKVVRIVTPGTISDEALLQERQDNLLAAIWQDSKGFGYATLDISSGRFRLSEPADRETMAAELQRTNPAELLYAEDFAEMSLIEGRRGLRRRPLWEFEIDTARQQLNLQFGTRDLVGFGVENAPRGLCAAGCLLQYAKDTQRTTLPHIRSITMEREQDSIIMDAATRRNLEITQNLAGGAENTLASVLDCTVTPMGSRMLKRWLHMPVRDTRVLLERQQTIGALQDFTAGLQPVLRQVGDLERILARLALRTARPRDLARMRHAFQQLPELRAQLETVDSAPVQALREKMGEFAELRDLLERAIIDTPPVLVRDGGVIASGYNEELDEWRALADGATDYLERLEVRERERTGLDTLKVGFNAVHGYYIQISRGQSHLAPINYMRRQTLKNAERYIIPELKEYEDKVLTSKGKALALEKQLYEELFDLLLPHLEALQQSASALAELDVLVNLAERAYTLNYTCPTFIDKPGIRITEGRHPVVEQVLNEPFIANPLNLSPQRRMLIITGPNMGGKSTYMRQTALIALMAYIGSYVPAQKVEIGPIDRIFTRVGAADDLASGRSTFMVEMTETANILHNATEYSLVLMDEIGRGTSTYDGLSLAWACAENLANKIKALTLFATHYFELTQLPEKMEGVANVHLDALEHGDTIAFMHSVQDGAASKSYGLAVAALAGVPKEVIKRARQKLRELESISPNAAATQVDGTQMSLLSVPEETSPAVEALENLDPDSLTPRQALEWIYRLKSLV | 6.8 ± 0.6 | 0.0317 ± 0.00067 | –
MutS (Escherichia coli K-12; D693N) (protein) MSAIENFDAHTPMMQQYLRLKAQHPEILLFYRMGDFYELFYDDAKRASQLLDISLTKRGASAGEPIPMAGIPYHAVENYLAKLVNQGESVAICEQIGDPATSKGPVERKVVRIVTPGTISDEALLQERQDNLLAAIWQDSKGFGYATLDISSGRFRLSEPADRETMAAELQRTNPAELLYAEDFAEMSLIEGRRGLRRRPLWEFEIDTARQQLNLQFGTRDLVGFGVENAPRGLCAAGCLLQYAKDTQRTTLPHIRSITMEREQDSIIMDAATRRNLEITQNLAGGAENTLASVLDCTVTPMGSRMLKRWLHMPVRDTRVLLERQQTIGALQDFTAGLQPVLRQVGDLERILARLALRTARPRDLARMRHAFQQLPELRAQLETVDSAPVQALREKMGEFAELRDLLERAIIDTPPVLVRDGGVIASGYNEELDEWRALADGATDYLERLEVRERERTGLDTLKVGFNAVHGYYIQISRGQSHLAPINYMRRQTLKNAERYIIPELKEYEDKVLTSKGKALALEKQLYEELFDLLLPHLEALQQSASALAELDVLVNLAERAYTLNYTCPTFIDKPGIRITEGRHPVVEQVLNEPFIANPLNLSPQRRMLIITGPNMGGKSTYMRQTALIALMAYIGSYVPAQKVEIGPIDRIFTRVGAADDLASGRSTFMVEMTETANILHNATEYSLVLMNEIGRGTSTYDGLSLAWACAENLANKIKALTLFATHYFELTQLPEKMEGVANVHLDALEHGDTIAFMHSVQDGAASKSYGLAVAALAGVPKEVIKRARQKLRELESISPNAAATQVDGTQMSLLSVPEETSPAVEALENLDPDSLTPRQALEWIYRLKSLV | – | – | 34
